Molecular target: MK-3475-596 (MK-3475 derivatized with fluorescent dye Dylight-596) (Dylight-596 amine-reactive dye, reacts preferentially with the primary amine of lysine residues (sites not given))
Assay: FRET between Dylight-488 labelled Ab6 and Dylight-596 labelled MK-3475, recorded for 72 hours (ex 488 nm, em 620 nm)
Description: Dylight-488® or Dylight-596® are amine-reactive dyes, which react preferentially with the primary amine of lysine residues. […] Due to the sensitivity of the assay, the molar concentration of the fluorogenic tagged proteins is either 3.2 uM or 800 nM depending on the protein ratio. FRET fluorescence signals are recorded for 72 hours at λₑₘ=620 nm (λₑₓ=488 nm) (FIG. 49).
If protein interaction occurs, we expect to see a growth of the fluorescence signal as a function of time (FIG. 49). The interaction is evaluated by the rate of growth of the fluorescence and the maximum of the fluorescence signal. The absence of interaction (or a reduced interaction) is characterized by i) a low rate of the growth of the fluorescence signal, and ii) a low plateau maximal. […] The fluorescence baseline is measured in the absence of labeled protein.

MK-3475-596 (MK-3475 derivatized with fluorescent dye Dylight-596) (Dylight-596 amine-reactive dye, reacts preferentially with the primary amine of lysine residues (sites not given)), sequence (VH, as listed by the source, chain 1 of 2): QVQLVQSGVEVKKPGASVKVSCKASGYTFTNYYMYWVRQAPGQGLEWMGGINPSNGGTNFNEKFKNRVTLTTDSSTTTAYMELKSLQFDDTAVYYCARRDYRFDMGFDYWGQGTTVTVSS
MK-3475-596 (MK-3475 derivatized with fluorescent dye Dylight-596) (Dylight-596 amine-reactive dye, reacts preferentially with the primary amine of lysine residues (sites not given)), sequence (VL, as listed by the source, chain 2 of 2): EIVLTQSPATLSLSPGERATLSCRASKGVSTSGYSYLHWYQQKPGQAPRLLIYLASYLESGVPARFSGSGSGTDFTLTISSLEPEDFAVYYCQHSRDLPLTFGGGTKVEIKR

- binding result: no binding
B1: Ab6-488 (Ab6 derivatized with fluorescent dye Dylight-488) (antibody, human IgG4 S228P, kappa, V domains shown)
VH: QMQLVQSGPEVKKPGTSVKVSCKASGYTFTDYNVDWVRQARGQRLEWIGDINPNDGGTIYAQKFQERVTITVDKSTSTAYMELSSLRSEDTAVYYCARNYRWFGAMDHWGQGTTVTVSS
VL: DIVMTQTPLSLSVTPGQPASISCKASQSLDYEGDSDMNWYLQKPGQPPQLLIYGASNLESGVPDRFSGSGSGTDFTLKISRVEAEDVGVYYCQQSTEDPRTFGGGTKVEIKR
modifications: Dylight-488 amine-reactive dye, reacts preferentially with the primary amine of lysine residues (sites not given)
